Source: US20230348603A1 (VERSEAU THERAPEUTICS, published 2023)
Substitutions are numbered along the chain they refer to. Names may count otherwise. Blank lines part the entries; values can stand above or below the binder they belong to.

Key:
[1] = molecular target: T1, Cynomolgus Monkey VSIG4-L-His (cynomolgus monkey); assay: BLI, IgG on AHC sensor, antigen 100 nM
T1 construct: ECD with His tag; also called cyVSIG4-L; cyno VSIG4-L-His
T1 chain: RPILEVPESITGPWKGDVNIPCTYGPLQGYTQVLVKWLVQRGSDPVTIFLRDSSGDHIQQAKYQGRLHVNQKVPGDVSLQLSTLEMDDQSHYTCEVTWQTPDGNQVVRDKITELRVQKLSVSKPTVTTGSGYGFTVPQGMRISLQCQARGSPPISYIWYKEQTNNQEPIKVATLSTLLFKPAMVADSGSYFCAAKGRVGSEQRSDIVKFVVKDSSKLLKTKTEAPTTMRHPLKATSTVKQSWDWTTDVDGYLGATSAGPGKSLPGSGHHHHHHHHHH

Human VSIG4-L-His = molecular target: T2, Human VSIG4-L-His (human, UniProt Q9Y279 20-283); assay: BLI, IgG on AHC sensor, antigen 100 nM
T2 construct: long isoform ECD with His tag; also called hVSIG4-L
T2 sequence: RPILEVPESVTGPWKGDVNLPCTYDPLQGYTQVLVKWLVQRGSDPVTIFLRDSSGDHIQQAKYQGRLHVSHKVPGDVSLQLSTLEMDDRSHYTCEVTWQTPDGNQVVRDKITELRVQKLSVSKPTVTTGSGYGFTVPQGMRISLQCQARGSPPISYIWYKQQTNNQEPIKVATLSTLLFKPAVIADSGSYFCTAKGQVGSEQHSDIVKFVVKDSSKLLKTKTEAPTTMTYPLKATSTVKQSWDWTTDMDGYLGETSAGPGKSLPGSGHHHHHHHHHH

Human VSIG4-L-Fc [2] = molecular target: T3, Human VSIG4-L-Fc (human); assay: BLI cross-blocking on hVSIG4-L-Fc, competitor 14C05 first
T3 construct: also called hVSIG4-L-Fc; hVSIG4-L

Human VSIG4-L-Fc [3] = molecular target: T3, Human VSIG4-L-Fc; assay: BLI cross-blocking on hVSIG4-L-Fc, competitor 12A12 first

B4: 1C6.D6 mouse/human chimeric IgG4 (S228P) kappa (antibody, V domains shown)
VH: QVQLQQPGAEMVRPGTSVKLSCKASGYTFTSYWMHWVKQRPGQGLEWIGKIDPSHNKTHYIQKFEDKATLTVDKSSSTAYMHLNSLTSEDSAVYYCVTWDGDFLYWGQGTLVTVSA
VL: NIVLTQSPASLTVSLGQRATISCRASESVDSYGNSFMHWYQQKPGQPPKLLIYITSNLQSGVPARFSGGGSRTDFTLTIDPVEADDAATYYCQQNNEDPWTFGGGTKLEIKR
notes: also called 1C6.D6b
binding signal (nm shift) (Human VSIG4-L-Fc [2]): 0.59 nm
binding signal (nm shift) (Human VSIG4-L-Fc [3]): 0.08 nm

B6: h16E10.D humanized IgG4 (S228P) kappa (antibody)
heavy: not shown
light: DIVLTQSPLSLPVTPGEPASISCRSSQSLLNSGNQENYLAWYLQKPGQSPQLLIYGASTRESGVPDRFSGSGSGTDFTLKISRVEAEDVGVYYCQNDHSYPLTFGGGTKLEIKRTVAAPSVFIFPPSDEQLKSGTASVVCLLNNFYPREAKVQWKVDNALQSGNSQESVTEQDSKDSTYSLSSTLTLSKADYEKHKVYACEVTHQGLSSPVTKSFNRGEC
KD relative to parental chimera [1]: 1.1 fold
KD relative to parental chimera (Human VSIG4-L-His): 0.6 fold

B11: 1H7.C7 mouse/human chimeric IgG4 (S228P) kappa (antibody, V domains shown)
VH: EVQLVESGGGLVMPGGSRRLSCAASGFTFSDSGMYWVRQAPEKGLEWIAYISSGSDTLYYAATVKGRFTISRDNAKNTLFLQMTSLRSEDTAIYYCAKRNFYGYDVMDYWGQGTSVTVSS
VL: DIVMTQSHKFMSTSVGDRVSITCKASQDVSNVVAWYQQKPGQSPKLLIYSASYRYTGVPDRFAGSGSGTDFTFTISSVQAEDLAVYYCQQHYSTPWTFGGGTKLEIKR
binding signal (nm shift) (Human VSIG4-L-Fc [2]): 0.13 nm
binding signal (nm shift) (Human VSIG4-L-Fc [3]): 0.08 nm

B12: 9A10.C4 mouse/human chimeric IgG4 (S228P) kappa (antibody, V domains shown)
VH: EVQLVESGGALVQPGGSLKLSCVASGFSFSNCVMSWVRQSPEKRLEWVATIGSDGSYSYYQDNVKGRFTVSRDNAKNTLYLQMSSLGSEDTALYYCGRHIYGYDVVDYWGQGTSLTVSS
VL: B11 VL with S20T, Y36F, Y55F, T56G, A63T, S93D, W96L, G100T, K103T, I106L
binding signal (nm shift) (Human VSIG4-L-Fc [2]): 0.14 nm
binding signal (nm shift) (Human VSIG4-L-Fc [3]): 0.1 nm

B13: h14D12.D humanized IgG4 (S228P) kappa (antibody)
heavy: not shown
light: DVQMTQSPSSLSASVGDRVTITCRASQSVDYDGDSYMNWYQQKPGKAPKLLIYAASNLESGVPSRFSGSGSGTDFTLTISSLQPEDFATYYCQQSNEDPRTFGGGTKLEIKRTVAAPSVFIFPPSDEQLKSGTASVVCLLNNFYPREAKVQWKVDNALQSGNSQESVTEQDSKDSTYSLSSTLTLSKADYEKHKVYACEVTHQGLSSPVTKSFNRGEC
KD relative to parental chimera [1]: 1 fold
KD relative to parental chimera (Human VSIG4-L-His): 1 fold

B16: 5D2.C8 mouse/human chimeric IgG4 (S228P) kappa (antibody, V domains shown)
VH: EVKLVESGGGLVKPGGSLKLSCAVSGFTFSNSAMSWVRQTPAKRLEWVAYISISGDNTYYPDSVKGRFTISRDNAKNTLYLQMSSLRSEDTAMYYCARRGYDYDGFTHWGQGTLVTVSA
VL: DILLTQSPAILSVSPGERVSFSCRASQNIGTSIHWYQQRTNGSPRLLIKYASQSISGIPSRFSGSGSGTDFTLSINSVESEDIADYYCQQSYSWPLTFGTGTQLELKR
binding signal (nm shift) (Human VSIG4-L-Fc [2]): 0.12 nm
binding signal (nm shift) (Human VSIG4-L-Fc [3]): 0.07 nm

B17: 13E11.A4 mouse/human chimeric IgG4 (S228P) kappa (antibody)
heavy: not shown
light: DIVMTQSHKFMSTSVGDNVSITCKASQYVSNTVAWYQQKPGQSPKLLIYSASYRNTGVPDRFTGSGSGTNFTFTISNMQAEDLAFYYCQQHYTSPLTFGAGTKLELKRTVAAPSVFIFPPSDEQLKSGTASVVCLLNNFYPREAKVQWKVDNALQSGNSQESVTEQDSKDSTYSLSSTLTLSKADYEKHKVYACEVTHQGLSSPVTKSFNRGEC
binding signal (nm shift) (Human VSIG4-L-Fc [2]): 0.24 nm
binding signal (nm shift) (Human VSIG4-L-Fc [3]): 0.07 nm

B18: A1 anti-VSIG4 antibody, human IgG4 (S228P) kappa (antibody, V domains shown)
VH: QVTLKESGPTLVKPTQTLTLTCTFSGISLTTSGMGVGWIRQPPGKALEWLADIFWDDNKYYNPSLKSRLTITKDTSKNQVVLTMTNMDPVDTATYYCVRVYYKNDGYFDVWGKGTTVTVSS
VL: DIVLTQSPLSLPVTLGQPASISCRASKSVTTSGYSFMHWYQQRPGQSPRLLIYLASNLEPGVPDRFSGSGSGTDFTLKISRVEAEDVGVYYCQQSGELPYTFGQGTKLEIKR
notes: variable regions from U.S. Pat. Publ
binding signal (nm shift) (Human VSIG4-L-Fc [2]): 0.55 nm
binding signal (nm shift) (Human VSIG4-L-Fc [3]): 0.57 nm

B19: 10E8.B6 mouse/human chimeric IgG4 (S228P) kappa (antibody, V domains shown)
VH: EVQLQQSGPELMKPGDSVKMSCKASGYTFTDYYMDWVKQSHGKSLEWIGYIYPNIDFTTYNQKFKGKATLTVDKSSNTAYMELHSLTSEDSAVYYCTRRDLPLHGSAYYFDYWGQGTTLTVSS
VL: DIVMSQSPSSLAVSAGEKVTMSCKSSQSLLNSRTRKNYLAWYQQKPGQSPKLLIYWASTRESGVPDRFTGSGSGTDFTLTISSVQAEDLAVYYCKQSYDLFTFGSGTKLEIKR
binding signal (nm shift) (Human VSIG4-L-Fc [2]): 0.11 nm
binding signal (nm shift) (Human VSIG4-L-Fc [3]): 0.06 nm

More lines, now with the values ahead:

KD relative to parental chimera [1]: 1 fold
KD relative to parental chimera (Human VSIG4-L-His): 0.8 fold
B1: h14D12.F humanized IgG4 (S228P) kappa (antibody, V domains shown)
VH: QIQLVQSGAEVKKPGASVKVSCKASGYTFTNYGMNWVRQAPGQGLEWMGLINTYTGEPTYADKFQGRVTMTLDTSTSTAYMELSSLRSEDTAVYYCARERIYGYLHYFDYWGQGTTVTVSS
VL: DVQMTQSPSSLSASVGDRVTITCRASQSVDYDGDSYMNWYQQKPGKAPKLLIYAASNLESGVPSRFSGSGSGTDFTLTISSLQPEDFATYYCQQSNEDPRTFGGGTKLEIKR

KD relative to parental chimera [1]: 1.2 fold
KD relative to parental chimera (Human VSIG4-L-His): 1.1 fold
B2: h14D12.H humanized IgG4 (S228P) kappa (antibody, V domains shown)
VH: B1 VH with M70F, T76A, Y95F
VL: B1 VL with V2I

KD relative to parental chimera [1]: 1.1 fold
KD relative to parental chimera (Human VSIG4-L-His): 1.7 fold
B3: h16E10.C humanized IgG4 (S228P) kappa (antibody, V domains shown)
VH: QVQLVQSGAEVKKPGASVKVSCKASGYTFTNYWLGWVRQAPGQGLEWMGDIYPGGGYTNYNEKFQGRVTMTADTSTSTAYMELSSLRSEDTAVYYCAKFYYYGSSYYFDSWGQGTTVTVSS
VL: DIVMTQSPDSLAVSLGERATINCKSSQSLLNSGNQENYLAWYQQKPGQPPKLLIYGASTRESGVPDRFSGSGSGTDFTLTISSLQAEDVAVYYCQNDHSYPLTFGGGTKLEIKR

binding signal (nm shift) (Human VSIG4-L-Fc [2]): 0.56 nm
binding signal (nm shift) (Human VSIG4-L-Fc [3]): 0.09 nm
B5: 16F6.E1 mouse/human chimeric IgG4 (S228P) kappa (antibody, V domains shown)
VH: QVQLQQPGAEMVRPGASLKLSCKASGYTFTSYWMHWVKQRPGQGLEWIGKIDPSKNTTHYNQNFRDKATLTVDRSSSTAYMQLNSLTSEDSAVYFCVTWDGDFTYWGQGTLVTISA
VL: B4 VL with A9P, T12A, I54L, T55A, Q59E, G69S, Y91F, Q93H

KD relative to parental chimera [1]: 1 fold
KD relative to parental chimera (Human VSIG4-L-His): 0.7 fold
B7: h16E10.F humanized IgG4 (S228P) kappa (antibody)
heavy: not shown
light: B6 light with L4M

KD relative to parental chimera [1]: 0.4 fold
KD relative to parental chimera (Human VSIG4-L-His): 0.9 fold
B8: h16E10.G humanized IgG4 (S228P) kappa (antibody)
heavy: not shown
light: B6 light with L4M

KD relative to parental chimera [1]: 1.3 fold
KD relative to parental chimera (Human VSIG4-L-His): 0.8 fold
B9: h16E10.E humanized IgG4 (S228P) kappa (antibody)
heavy: not shown
light: B6 light

binding signal (nm shift) (Human VSIG4-L-Fc [2]): 0.15 nm
binding signal (nm shift) (Human VSIG4-L-Fc [3]): 0.1 nm
B10: 14F8.H6 mouse/human chimeric IgG4 (S228P) kappa (antibody, V domains shown)
VH: EVHLVESGGALVKPGGSLKLSCTASGFTFSNSVMSWIRQTPEKRLEWVATIGSGGTYIYYPDSVKGRFTISRDNSKNTLFLQMTSLRSEDTALYYCARHIYGYDVVDYWGQGTTLTVST
VL: DIVMTQSHRFMSTSVGDRVSITCKASHDVSNVVAWYQQKPGQSPELLIYSASYRYTGVPARFTGSGSGTDFTFTISSVQAEDLAVYFCQQHFTTPLTFGAGTSLEVRR

KD relative to parental chimera [1]: 1.1 fold
KD relative to parental chimera (Human VSIG4-L-His): 1 fold
B14: h14D12.G humanized IgG4 (S228P) kappa (antibody)
heavy: not shown
light: B13 light with V2I

KD relative to parental chimera [1]: 0.9 fold
KD relative to parental chimera (Human VSIG4-L-His): 0.9 fold
B15: h14D12.E humanized IgG4 (S228P) kappa (antibody, V domains shown)
VH: QIQLVQSGSELKKPGASVKVSCKASGYTFTNYGMNWVRQAPGQGLEWMGLINTYTGEPTYADGFTGRFVFSLDTSVSTAYLQISSLKAEDTAVYYCARERIYGYLHYFDYWGQGTTVTVSS
VL: B1 VL

binding signal (nm shift) (Human VSIG4-L-Fc [2]): 0.29 nm
binding signal (nm shift) (Human VSIG4-L-Fc [3]): 0.3 nm
B20: EU103.2 anti-VSIG4 antibody, human IgG4 (S228P) kappa (antibody, V domains shown)
VH: QVQLQESGPGLVKPSQTLSLTCSFSGISLTTSGMGVGWIRQPPGKGLEWLADIFWDDNKYYNPSLKSRVTISVDTSKNQFSLKLSSVTAADTAVYYCVRVYYKNDGYFDVWGQGTLVTVSS
VL: EIVMTQSPATLSVSPGERATLSCRASKSVTTSGYSFMHWYQQKPGQAPRLLIYLASNLEPGIPARFSGSGSGTEFTLTISSLQSEDFAVYYCQHSRELPYTFGQGTKLEIKR
notes: as for B18
